Entries after “also recorded” stand apart in the source; their conditions may differ. Like-named read-outs stand apart in the source and are kept apart here. No end group written: not given here.
Columns and labels:
SP34 [1] = test: ELISA of SP34 binding to coated CD3ε1-27-Fc fusion proteins; conditions: FIG. 2A
Method: Examination of binding of SP34 to CD3ε1-27-Fc fusion proteins was conducted by ELISA. 100 μL of 2 μg/mL fusion protein was coated on 96 well microtiter plate (Nunc) at room temperature (RT) overnight. After blocking the wells with 3% milk-PBS (3% non-fat milk in 137 mM NaCl, 2.7 mM KCl, 10 mM Na2HPO4 1.8 mM KH2PO4) at RT for 1 hr and 6 washes with 0.05% PBST (0.05% Tween-20 in PBS), SP34 (5 μg/mL, 50 μL/well) was added to the wells as the first antibody and allowed for incubation at 37° C. for 1 hr. The wells were washed for 6 times with PBST after the incubation, and the second antibody horseradish peroxidase (HRP) labeled anti-Kappa light chain (Sigma, 1:6,000 dilution, 50 μL/well) was added and allowed for incubation at RT for 50 min. After 6 washes with PBST, 3,3′, 5,5′-Tetramethylbenzidine (TMB) was added to develop color, and 1M HCl was then added to stop the reaction. ELISA titer was read with a microtiter plate reader (Thermo Fisher) at 450 nm wavelength.

SP34 [2] = test: BLI binding of SP34 to CD3ε1-27 mutant fusion proteins; conditions: FIG. 2B
Method: (§1) Measurement of bindings between CD3ε1-27 mutants-SP34 fusion, or M-TCE, and […] was conducted as described above but with AHC sensors to capture M-TCE, and […] was used as the analyte.
In some embodiment, binding of SP34 to the second batch of 42 variants of […] mutant fusion proteins were tested by BLI with a ForteBio Red96 as described above.

SP34 [3] = test: Masking capability of potential masks of SP34 (ELISA, BLI); assay type: binding; conditions: mask and linker fused to SP34 VH and/or VL
Method: (§2) Binding of the 19 M-TCEs to both their antigens CEACAM5 and CD3δε was assessed with BLI using ForteBio Red96 as described above.

MMP9 = target: T1, MMP9 (Homo sapiens, UniProt P14780); test: Removal of masks by MMP9 digestion, SDS-PAGE; assay type: biochemical; conditions: 100 nM activated MMP9, 37° C., 3 hr
T1 construct: purchased Acrobiosystems
Method: MMP9 proenzyme (proMMP9), purchased from Acrobiosystems, was dissolved to 100 μg/mL in MMP9 digestion buffer (50 mM Tris, 10 mM CaCl2), 150 mM NaCl, pH 7.6). 4-aminophenylmercuric acetate (APMA) was added to a final concentration of 1 mM. The proMMP9-APMA mixture was incubated at 37° C. for 24 hr to activate proMMP9.
The selected M-TCEs, after adjusting to MMP9 digestion buffer, was mixed with activated MMP9 to a final concentration of 100 nM. The samples were further incubated at 37° C. for 3 hr to allow M-TCEs to be digested by MMP9.
The M-TCEs with 14 AA, 16 AA and 18 AA linker could be completely or nearly completely digested, as only the faster migrating bands could be seen. […] Too short linker would make the removal of the masks difficult, probably because the employed enzyme, MMP9 in this case, could not fully engage with its digestion site in the M-TCEs.

HT29 cells = test: PBMC co-cultivation assay, M-TCE-induced killing of HT29 cells; assay type: cell-based, human; conditions: for EC50: HT29 + human PBMC, 72 hours, read-out: Efficacy (EC50); for tumor cell killing efficacy: digested vs undigested, in words; for Digested vs. masked: ratio of EC50 non-digested to MMP9-digested
Method: Five digested and undigested M-TCEs were tested for their tumor cell killing capability in the presence of human PBMC.
A total of 5×10^3 cells in RPMI1640 medium (supplemented with 10% FBS and 2 mM glutamine) of the target cell line (HT29) were seeded in 96-well plates (Day 0). A dilution series of respective antibodies was performed in assay media and added to target cells. On Day 0, a total of 5×10^4 PBMCs were added to each well, and the final reaction volume was adjusted to 200 μl. Percentage viability of target cell was measured by […]. LDH was measured after 72 hours using the Cell Counting Kit-8 (CK04, Dojindo, Japan) according to the manufacturer's recommendations. The results were analyzed as mean and standard deviation (SD) from triplicate wells and plotted as 4-parameter non-linear regression fittings using GraphPad Prism 9 software (GraphPad Software, San Diego, CA, USA).

CD3δε [4] = target: T2, CD3δε (Homo sapiens, UniProt P07766); test: BLI binding of M-TCEs (captured on AHC sensors) to CD3δε; set-up: purchased ACRO (Beijing, China)
Method: (§3) Bio-Layer Interferometry (BLI) technique was employed for the measurement of protein-protein interactions in this study. A Octet Red96 system and Streptavidin (SA) or AHC biosensors (ForteBio, Fremont) were utilized.
as §1, §2
Target sequence in this assay (P07766 22-126 limits assumed): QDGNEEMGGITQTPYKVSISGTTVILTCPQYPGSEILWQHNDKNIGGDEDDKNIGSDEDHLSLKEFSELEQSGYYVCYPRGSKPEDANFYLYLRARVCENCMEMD
Target sequence in this assay (P04234 22-105 partner limits assumed): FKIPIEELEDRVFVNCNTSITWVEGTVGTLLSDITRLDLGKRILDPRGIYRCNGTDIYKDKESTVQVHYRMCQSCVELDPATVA

CD3δε [5] = target: T2, CD3δε; test: BLI (Octet Red96), SP34 on AHC biosensor, CD3δε as analyte
CD3ε-p1 = target: T3, CD3ε-p1 (human); test: BLI, biotinylated peptide on SA biosensor, SP34 as analyte
T3 construct: also called 5 AA N-terminal CD3ε peptide
T3 peptide: QDGNEGGGGS-biotin
Method: (§4) To measure the binding of SP34 to CD3ε peptides, the peptides were immobilized on the SA biosensor through SA-biotin interaction according the manufacturer's instruction. After running PBS with 0.01% Tween-20 buffer to stabilize baselines, the biosensors were dipped into solid black 96-well plates (Greiner Bio-One, Cat. #65520, Monroe, North Carolina, USA) containing SP34 in indicated concentrations. Association and dissociation were measured accordingly, and binding kinetics were calculated using ForteBio's Data Analysis 12.0 software.
(§5) BLI technology was employed to measure the affinity of the six peptides to SP34 with a ForteBio Red96. These peptides were immobilized on the SA Biosensor and their affinities were measured using SP34 as the analyte. The binding sensorgrams indicate that SP34 binds to all six peptides with very similar profiles (FIG. 1C). […] It is further hypothesized that a N-terminal CD3ε peptide […] can bind to SP34 as well.

CD3ε-p2 = target: T4, CD3ε-p2 (human); test: as above
T4 construct: also called 8 AA N-terminal CD3ε peptide
T4 peptide: QDGNEEMGGGGGS-biotin
Method: as §4, §5

CD3ε-p3 = target: T5, CD3ε-p3 (human); test: as above
T5 construct: also called 11 AA N-terminal CD3ε peptide
T5 peptide: QDGNEEMGGITGGGGS-biotin
Method: as §4, §5

CD3ε-p5 = target: T6, CD3ε-p5 (human, biotinylation at the C-terminus); test: as above
T6 construct: also called 17 AA N-terminal CD3ε peptide
T6 peptide: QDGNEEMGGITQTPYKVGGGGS
Method: as §4, §5

CD3ε-p6 = target: T7, CD3ε-p6 (human, biotinylation at the C-terminus); test: as above
T7 construct: also called 20 AA N-terminal CD3ε peptide
T7 peptide: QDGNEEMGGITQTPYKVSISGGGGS
Method: as §4, §5

CD3ε-p7 = target: T8, CD3ε-p7 (human, biotinylation at the C-terminus); test: as above
T8 construct: also called 23 AA N-terminal CD3ε peptide
T8 peptide: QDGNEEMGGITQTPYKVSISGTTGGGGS
Method: as §4, §5

CD3δε [6] = target: T2, CD3δε; test: BLI affinity of SP34 (immobilized on AHC biosensor) to CD3δε as analyte; assay type: binding; set-up: purchased ACRO (Beijing, China)
Method: as §3
Target sequence in this assay (P07766 22-126 limits assumed): as the sequence (P07766 22-126 limits assumed) above
Target sequence in this assay (P04234 22-105 partner limits assumed): as the sequence (P04234 22-105 partner limits assumed) above
CD3δε was purchased from ACRO (Beijing, China) and used as the antigen for SP34 affinity measurement.
SP34 was immobilized on the AHC biosensor and its affinity to CD3δε was measured using the latter as the analyte. This approach was selected as it can avoid potential multivalent binding and give accurate affinity between SP34 and CD3δε.

CD3 on human PBMC [7] = target: T9, CD3 on human PBMC (human, UniProt P07766 23-207); test: cell-based or functional assay
CD3 on human PBMC [8] = target: T9, CD3 on human PBMC; test: cell-based or functional assay; remark: listed apart in the source

T1 sequence (P14780 107-707 limits assumed): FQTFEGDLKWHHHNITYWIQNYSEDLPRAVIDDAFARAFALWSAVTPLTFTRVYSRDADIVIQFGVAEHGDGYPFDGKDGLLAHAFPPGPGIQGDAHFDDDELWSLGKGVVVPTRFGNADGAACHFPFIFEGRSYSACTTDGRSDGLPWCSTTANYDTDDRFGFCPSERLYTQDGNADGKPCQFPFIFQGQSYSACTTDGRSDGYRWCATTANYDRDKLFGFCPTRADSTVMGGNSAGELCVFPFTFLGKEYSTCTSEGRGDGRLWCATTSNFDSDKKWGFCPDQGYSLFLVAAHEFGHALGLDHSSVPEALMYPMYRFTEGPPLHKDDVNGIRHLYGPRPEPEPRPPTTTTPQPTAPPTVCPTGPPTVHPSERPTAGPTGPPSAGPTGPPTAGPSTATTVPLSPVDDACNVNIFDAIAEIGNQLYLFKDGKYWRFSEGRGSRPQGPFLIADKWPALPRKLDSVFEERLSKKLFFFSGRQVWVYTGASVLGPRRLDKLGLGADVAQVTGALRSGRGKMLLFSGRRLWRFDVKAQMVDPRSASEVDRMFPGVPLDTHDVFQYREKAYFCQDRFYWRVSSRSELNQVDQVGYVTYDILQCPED
T9 sequence (P07766 23-207): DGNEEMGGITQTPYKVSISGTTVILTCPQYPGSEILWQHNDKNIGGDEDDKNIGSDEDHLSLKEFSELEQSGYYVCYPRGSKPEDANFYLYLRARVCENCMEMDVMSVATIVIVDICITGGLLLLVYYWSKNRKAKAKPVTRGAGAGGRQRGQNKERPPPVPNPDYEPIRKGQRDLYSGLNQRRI

D2N: D2N mutant of the CD3ε1-27-Fc fusion protein
binding of SP34 to fusion protein (SP34 [1]): significant binding; also recorded: maintained binding

Q1C: Q1C mutant of the CD3ε1-27-Fc fusion protein
binding of SP34 to fusion protein (SP34 [2]): maintained binding

L4-G3A: M-TCE; QDANEEGSGSPLGLGSGS-SP34VH, SEQ ID NO 39
Masking Capability (SP34 [3]): Yes
digestion by MMP9 (MMP9): partially digested
EC50 (HT29 cells; MMP9-digested): 0.012 nM
EC50 (HT29 cells; Non-digested): 1.72 nM
efficacy lower before mask removal (HT29 cells; before vs after MMP9 digestion): ~140 fold
tumor cell killing efficacy (HT29 cells): could induce tumor cell killing both before and after MMP9 digestion
Digested vs. masked (HT29 cells): 144×
EC50 of MMP9-digested M-TCE relative to unmasked TCE (HT29 cells; vs SP34-CEA): approximately 10 fold
binding to CD3δε (CD3δε [4]; after MMP9 digestion): largely restored the binding

G3R: G3R mutant of the CD3ε1-27-Fc fusion protein
binding of SP34 to fusion protein (SP34 [2]): maintained binding

L4-D2E: M-TCE; QEGNEEGSGSPLGLGSGS-SP34VH, SEQ ID NO 27
Masking Capability (SP34 [3]): Yes
digestion by MMP9 (MMP9): partially digested
EC50 (HT29 cells; MMP9-digested): 0.011 nM
EC50 (HT29 cells; Non-digested): 0.65 nM
tumor cell killing efficacy (HT29 cells): higher efficacy in inducing tumor cell killing than their undigested counterparts
Digested vs. masked (HT29 cells): 59×

L2-G3R: M-TCE; QDRNEEGSPLGLGS-SP34VH, SEQ ID NO 43
Masking Capability (SP34 [3]): Yes
digestion by MMP9 (MMP9): could not be digested
binding to CD3δε (CD3δε [4]; non-digested (masked), compared with non-masked TCE): lack of masking capability

G3A: G3A mutant of the CD3ε1-27-Fc fusion protein
binding of SP34 to fusion protein (SP34 [1]): significant binding; also recorded: maintained binding

D2G: D2G mutant of the CD3ε1-27-Fc fusion protein
binding of SP34 to fusion protein (SP34 [1]): significant binding; also recorded: maintained binding

B1: SP34 chimeric antibody (antibody, V domains shown)
VH: EVKLLESGGGLVQPKGSLKLSCAASGFTFNTYAMNWVRQAPGKGLEWVARIRSKYNNYATYYADSVKDRFTISRDDSQSILYLQMNNLKTEDTAMYYCVRHGNFGNSYVSWFAYWGQGTLVTVSS
VL: QAVVTQESALTTSPGETVTLTCRSSTGAVTTSNYANWVQEKPDHLFTGLIGGTNKRAPGVPARFSGSLIGDKAALTITGAQTEDEAIYFCALWYSNLWVFGGGTKVEIK
notes: VH and VL fused to the constant regions of human IgG1
Kd (CD3δε [5]): 5.8 nM
koff (CD3δε [5]): 0.0032 s⁻¹
kon (CD3δε [5]): 550000 M⁻¹ s⁻¹
Kd (CD3ε-p1): 0.99 nM
koff (CD3ε-p1): 0.00016 s⁻¹
kon (CD3ε-p1): 160000 M⁻¹ s⁻¹
Kd (CD3ε-p2): 3.6 nM
koff (CD3ε-p2): 0.00024 s⁻¹
kon (CD3ε-p2): 65000 M⁻¹ s⁻¹
Kd (CD3ε-p3): 2 nM
koff (CD3ε-p3): 0.00011 s⁻¹
kon (CD3ε-p3): 56000 M⁻¹ s⁻¹
Kd (CD3ε-p5): 1.8 nM
koff (CD3ε-p5): 9.8e-05 s⁻¹
kon (CD3ε-p5): 54000 M⁻¹ s⁻¹
Kd (CD3ε-p6): 3.5 nM
koff (CD3ε-p6): 0.00016 s⁻¹
kon (CD3ε-p6): 46000 M⁻¹ s⁻¹
Kd (CD3ε-p7): 1.3 nM
koff (CD3ε-p7): 0.00013 s⁻¹
kon (CD3ε-p7): 100000 M⁻¹ s⁻¹

B2: SP34: anti-CD3 antibody; VH and VL (SEQ ID NOs 1, 2) fused to human IgG1 constant regions, chimeric antibody (antibody, V domains shown)
VH: EVKLLESGGGLVQPKGSLKLSCAASGFTFNTYAMNWVRQAPGKGLEWVARIRSKYNNYATYYADSVKDRFTISRDDSQSILYLQMNNLKTEDTAMYYCVRHGNFGNSYVSWFAYWGQGTLVTVSS
VL: QAVVTQESALTTSPGETVTLTCRSSTGAVTTSNYANWVQEKPDHLFTGLIGGTNKRAPGVPARFSGSLIGDKAALTITGAQTEDEAIYFCALWYSNLWVFGGGTKVEIK
modifications: human IgG1 constant regions; VH of anti-CD3 antibody SP34; VL of anti-CD3 antibody SP34
ka (CD3δε [6]; SP34 immobilized, CD3δε 9.4-150 nM as analyte): 550000 M⁻¹ s⁻¹
kd (CD3δε [6]; SP34 immobilized, CD3δε as analyte): 0.0032 s⁻¹
Kd (CD3δε [6]; monovalent binding of SP34 to CD3δε): 5.8 nM

B3: MMP9-digested L4-G3A (bispecific antibody, not shown: small tags and cut ends)
heavy: EVKLLESGGGLVQPKGSLKLSCAASGFTFNTYAMNWVRQAPGKGLEWVARIRSKYNNYATYYADSVKDRFTISRDDSQSILYLQMNNLKTEDTAMYYCVRHGNFGNSYVSWFAYWGQGTLVTVSS
light: QAVVTQESALTTSPGETVTLTCRSSTGAVTTSNYANWVQEKPDHLFTGLIGGTNKRAPGVPARFSGSLIGDKAALTITGAQTEDEAIYFCALWYSNLWVFGGGTKVEIK
chain: EVQLVESGGGFVQAGESLTLSCTSSTLTFTPYRMAWYRQAPGKQRDLVADISSGDGRTTNYADFAKGRFTISRDNIKNTVFLRMTNLKPEDTAVYYCNTFVSFVGIARSWGQGTQVTVSSESKYGPPCPPCPAPEAAGGPSVFLFPPKPKDTLMISRTPEVTCVVVDVSQEDPEVQFNWYVDGVEVHNAKTKPREEQFNSTYRVVSVLTVLHQDWLNGKEYKCKVSNKGLPSSIEKTISKAKGQPREPQVCTLPPSQEEMTKNQVSLSCAVKGFYPSDIAVEWESNGQPENNYKTTPPVLDSDGSFFLVSRLTVDKSRWQEGNVFSCSVMHEALHNRFTQKSLSLSL
killing EC50 of MMP9-digested M-TCE against that of unmasked TCE SP34-CEA (CD3 on human PBMC [7]): ~10 fold
EC50 of M-TCE-induced killing of HT29 cells in the presence of human PBMC (CD3 on human PBMC [8]): 0.012 nM
